Laboratory results: paper PMC11367152, “An aptamer‐guided fluorescence polarisation platform for extracellular vesicle liquid biopsy”

Biological target: HER2 on immobilised SKBR3 EVs (UniProt P04626 23-1255)
Test: fluorescence polarisation; SKBR3 EVs captured by anti-CD9/CD81; delta FP below LOD; FITC aptamer 5 nM, 1 h, room temperature, in antibody-captured EV wells; aptamers folded in PBS + 1.0 mM MgCl2 (CD63-BP, control) or PBS + 5.0 mM MgCl2 (HER2-HApt); pH not stated
Conditions: protein: native; tags: none; label: 5'-FITC; folded single strand

B1: FITC-negative control aptamer (structured_DNA)
DNA: GCGCGAATGGGCGCGC
modifications: 3' inverted dT
- binding result: no binding
